± gives the half width of the 95% confidence interval.
Tests used:
[1] = folding stability dG unfold from chymotrypsin proteolysis; higher = more stable
Summary of the method: (§1)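 Digests were run with trypsin and chymotrypsin at 11 concentrations in threefold dilutions, plus a no-protease condition, on designed mini-proteins in a PA-tagged cDNA display construct. The mini-proteins were under 80 residues, had no cysteine, and were kept only when AlphaFold2 dimer inter-PAE was above 15. After sequencing, Bayesian fitting of the counts gave K50, from which unfolding free energy was derived against a sequence-predicted unfolded-state K50 and a shared folded-state K50, per protease or combined.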

[2] = folding stability dG unfold (combined trypsin and chymotrypsin); higher = more stable
Summary of the method: as §1

[3] = folding stability dG unfold from trypsin proteolysis; higher = more stable
Summary of the method: as §1

Row | Sequence | folding stability dG unfold [1] [kcal/mol] | folding stability dG unfold [2] [kcal/mol] | folding stability dG unfold [3] [kcal/mol]
1 | SAGGGANIEGVEIYRIPDLDKYLVVVPSPAPEGAEITITVRLPNGPFTKTFVAKYRPLPGNRHVFVGSAGGS [r8_195_TrMRF] | 0.789 ± 0.15 | 1.03 ± 0.12 | 1.23 ± 0.056
2 | SAGGGEIKIEIYRHPDTIMIRVKWDNPQQLKEEIIELFREENGFKPKEVSVQYNPNGYLYIMFEFKPKSAGG [r13_158_TrROS] | 4.12 ± 0.086 | 3.64 ± 0.21 | 2.59 ± 0.12
3 | SAGGGELYIMFKFDFTFWINNGTISFDMYIMIRIPIPPPPVPIELEDDPDGSYKYEYPNGKEHEVPNSAGGS [r16_136_TrROS] | 3.16 ± 0.079 | 3.23 ± 0.22 | 3.15 ± 0.1
4 | SAGGGFEEIIEKAIAKAKELFPDTGAVVPITETVYDPVKKKPIVIEVLVEFDKDGKIKKVEILKISELSAGG [r13_770_TrMRF] | 1.34 ± 0.044 | 2.09 ± 0.11 | 2.86 ± 0.2
5 | SAGGGFSVSTGTLTDPVTGKPITLTVTNLPDGVSRVTVTLEDGKTFEFTFPANNPPTPEQVAEAVKAFSAGG [r13_492_TrMRF] | 3.631 ± 0.024 | 3.64 ± 0.04 | 3.64 ± 0.078
6 | SAGGGGSMTIVVPVEVSPETSEEEVRKRAEEIARPIAEELGKKVSIEVSREEDPEGGRRWTATITILSAGGS [r16_279_JUSTAS] | 2.6 ± 0.017 | 2.71 ± 0.046 | 2.88 ± 0.056
7 | SAGGGGSTPVSSYSYPLPDGSTATITISSKNPDSDIYSFTVTLSDGTTVPLDVPLSESVEEAIARVLTSAGG [r13_470_JUSTAS] | 2.19 ± 0.076 | 2.27 ± 0.092 | 2.31 ± 0.086
8 | SAGGGHMVNVTLTGSSIEEIKKELEELAKKYGFVINPKKVEKLPGPKYKITLNIKAPDEVVELIKKKSAGGS [r8_357_JUSTAS] | 2.16 ± 0.053 | 1.72 ± 0.13 | 0.943 ± 0.044
9 | SAGGGIAEILEIREFEDGVEILILTDDLDDPEIIEELIDEIAEELGLPKEKIRAHIIPADIPPLPDEESAGG [r13_430_TrMRF] | 1.18 ± 0.1 | 1.04 ± 0.24 | 1.22 ± 0.061
10 | SAGGGIEREVAPDEVVEIPIVRIEGDVAREETIEIRLPAGARIEPSGDKIRLWFPEEGKVLEIPLTELSAGG [r13_275_TrMRF] | -0.079 ± 0.059 | -0.0226 ± 0.096 | -0.0241 ± 0.065
11 | SAGGGITITLPDGSVIEIEPVSTFTNEDGQPVTKIKATLTDPVTGTSVEADIYLFPDGGVKIDLKPGSAGGS [r16_651_TrMRF] | 2.35 ± 0.031 | 2.35 ± 0.062 | 2.3 ± 0.051
12 | SAGGGKKYRVTLELTLPDGTKLTLEFEFEVVPPAVPKPVVTTSLDDIAEFDPETGTAIDKKNKKPIPLPSAG [r5_807_TrMRF] | 3.1 ± 0.065 | 2.66 ± 0.19 | 1.5 ± 0.12
13 | SAGGGKTVVLVTHPDGTPTTITFDPEKPVATITYPDGTTETLPVPPDKTIADLAKALPADYTAVFAPASAGG [r13_696_TrMRF] | 0.696 ± 0.069 | 0.419 ± 0.13 | -0.338 ± 0.13
14 | SAGGGLLEELARELGFEAEIEEIPETGILRITLRPEDGSEVEITVKVTRIPGLGEVKLEVLEVKVRPTSAGG [r13_936_TrMRF] | 3.31 ± 0.052 | 3.33 ± 0.2 | 3.15 ± 0.16
15 | SAGGGLTEEQLEEEAREVAERVEKEFAEATGIEPVEILSVEVFPDGTVRITLRFKGKGGLVTYTIPLSAGGS [r16_622_TrMRF] | 3.58 ± 0.04 | 3.42 ± 0.12 | 3.16 ± 0.096
16 | SAGGGMGRIPLYGEERVEEIAAEPDVVSVEEDPETGRTYVYFERPDGYYSFTRDNETGEITEKTPLPSAGGS [r8_251_JUSTAS] | -0.523 ± 0.5 | -0.237 ± 0.21 | -0.462 ± 0.23
17 | SAGGGMKLTITVTNADGSTTTETLTLGDLEKALEFLESDPTASLASIEIKPVPDTSEVEMNVSLTVPASAGG [r13_796_JUSTAS] | 1.55 ± 0.035 | 1.47 ± 0.071 | 1.29 ± 0.056
18 | SAGGGMMTLVTLEITIPKPPDPKTGKSRPLPLTLEFEVEADDPEALEERVEEELEKIGIPEEARKLLSAGGS [r16_40_JUSTAS] | 0.547 ± 0.16 | 0.698 ± 0.2 | 0.471 ± 0.092
19 | SAGGGMNEKVIEIEVTVTAPDGKVTTNPTTVVSNSLEEVKASIKASIPPNWSITVTVLKTKSLKEVLSSAGG [r13_513_JUSTAS] | 0.425 ± 0.081 | 0.659 ± 0.095 | 0.667 ± 0.03
20 | SAGGGMSVSELKKFFPNLKPGATFVLKDPNSDRTGTGTLLSDGTIKVQLPGSEVTVPDDTLVVSISASAGGS [r8_162_JUSTAS] | -0.237 ± 0.27 | 0.321 ± 0.13 | 0.585 ± 0.043
21 | SAGGGMTPVKKEYVVTLPVPPGMTEEEARELAERAAEELRPELEAKGLAYEVTFELSPEGLVTVTVVASAGG [r13_529_JUSTAS] | 2.41 ± 0.025 | 2.31 ± 0.034 | 2.19 ± 0.042

Row | Sequence | folding stability dG unfold [1] [kcal/mol] | folding stability dG unfold [2] [kcal/mol] | folding stability dG unfold [3] [kcal/mol]
22 | SAGGGMTVETTSKETPLPDGSLRRTETITITEPGGKPLTRTTTKIWDPSTGKVLETRPVSNATVVAESSAGG [r13_1008_JUSTAS] | -0.0787 ± 0.15 | -0.187 ± 0.14 | -0.944 ± 0.82
23 | SAGGGMTVTIEVEGSIKKSIKGISYKDDKEKKESNKNKYLKKTITVTLTAEDDPNAAAAAIAALGLGSAGGS [r16_467_JUSTAS] | 0.313 ± 0.21 | 0.181 ± 0.25 | 0.144 ± 0.23
24 | SAGGGPEEIRRAAEALAAELAAELGLEVVEVEVEVREDGTVTVRITVRLPDGSKLEITLTLPAGAPLSAGGS [r8_175_TrROS_Hall] | 1.15 ± 0.038 | 1.65 ± 0.073 | 2.03 ± 0.05
25 | SAGGGPFGIPFPFPIEDPDRLDLVEGLVAELEEFFRSLGAGPLTAERVGDTTYVVLVPFDGKPIVSGSAGGS [r16_703_TrMRF] | 1.95 ± 0.066 | 1.8 ± 0.089 | 1.51 ± 0.025
26 | SAGGGPLRTVEVELEFETEEEAEKAIKEYLEKLGLPPEKVEVSFVSREERLVEDKIVYRYKFVFTLPSAGGS [r16_240_JUSTAS] | 5.13 ± 0.13 | 4.98 ± 0.17 | 4.09 ± 0.13
27 | SAGGGSAWKVTAENLPADGYVKFPDGTTVPPGTELTVPLSAGYTDIRALDPEGNVVSVELVPLPEPKLSAGG [r13_441_JUSTAS] | -0.274 ± 0.29 | -0.187 ± 0.18 | -0.15 ± 0.14
28 | SAGGGSDTVPPVPKATITFTLPAESPEEAEAAAEEIARELEEEGGIPATATVTTDPETGTVTVTITLESAGG [r13_517_TrMRF] | 0.672 ± 0.059 | 0.855 ± 0.069 | 0.971 ± 0.033
29 | SAGGGSISISLPAEELKALSPEDVIEVTAPDGTKIKAKPVKKGDTYPVTAEDPNNPKNATEMGTATLPSAGG [r13_745_JUSTAS] | 0.4 ± 0.095 | 0.176 ± 0.19 | 0.0233 ± 0.084
30 | SAGGGSISPAIVAALRAAGASLEEIVAYLNEQGYPIASVLGEEEHHHHHHITLLLPETGETVTVELHSAGGS [r8_179_JUSTAS] | 3.029 ± 0.028 | 2.79 ± 0.096 | 2.43 ± 0.068
31 | SAGGGSMEVVKEEVSEEVEVLPNGTVLTTKTITYKTPDGKEYTETVLERVDPVTGKREVIEKKTYPSSAGGS [r16_50_JUSTAS] | 2.64 ± 0.045 | 2.4 ± 0.1 | 1.59 ± 0.12
32 | SAGGGSMFSTIYDPNSNNSIEAPLLSIREEDGRPTIEYQLPDGTRVTRPLSELGAFTLTGGAGSLTLPSAGG [r13_211_JUSTAS] | 0.552 ± 0.14 | 0.774 ± 0.075 | 0.83 ± 0.052
33 | SAGGGSMKTIELTVTNPATGETVTVTLELDPSVSEEEVEARIKETEEAVEKELLAPEPPLAPTPARASAGGS [r16_191_JUSTAS] | 1.22 ± 0.023 | 0.765 ± 0.062 | -0.465 ± 0.096
34 | SAGGGSMLIRRRLLLVERIEDGLLTYDIEEEVYLPLPEPEVPVSVERRPDGSLVLTFPDGTRRLLPRSAGGS [r16_136_JUSTAS] | 2.39 ± 0.17 | 2.01 ± 0.13 | 1.65 ± 0.077
35 | SAGGGSMTPTTTTKTYNVPPELAQKILDGYPLGDKELAAALGLPPDVEVTLVSSDEDTLTVEITIPASAGGS [r16_679_JUSTAS] | 4.05 ± 0.068 | 3.81 ± 0.075 | 3.48 ± 0.14
36 | SAGGGSMVTQTEFTLPDGTKVSESTLPDGTVTTTITDPTNPTVTTSPVRTVSPGPLSPANPALVAALSAGGS [r16_482_JUSTAS] | -0.17 ± 0.18 | -0.317 ± 0.1 | -1.09 ± 0.18
37 | SAGGGSSSSSLTFTYDPATGKVLGSESFTIPSPSGEPRTNVLTLVEKNPSGTLKTTVLTRPVPPTLSSAGGS [r16_595_JUSTAS] | 2.62 ± 0.096 | 2.66 ± 0.35 | 1.55 ± 0.1
38 | SAGGGSTTTRTIGSKDGTVATVTVTTDPATGTTTVTISSPSPEVLEEVAAQLGLPVREVLPDGTVVLASAGG [r13_937_JUSTAS] | 1.25 ± 0.015 | 1.08 ± 0.037 | 0.659 ± 0.023
39 | SAGGGSTTTYSIPEGPLTLEVTTVTVGDGTVKKTVVTTPEGKRTEIPPSNPITIPPNWTVTSSVTLTSAGGS [r16_669_JUSTAS] | 0.0533 ± 0.16 | 0.0118 ± 0.16 | -0.114 ± 0.12
40 | SAGGHTIWIPFDSPEQAKELANEIARELNDHGLKVKVKVHPDDGWIKVKVDMRNNDKEKKIKIWFPFPSAGG [r13_641_TrROS] | 2.44 ± 0.18 | 1.78 ± 0.36 | 0.844 ± 0.1
41 | SAGGIAEAIGEAIAKAPGVAEVEVDIEITKIEPTPGDGAYAHIDIRVRARHPVTGEEVELRFDIVFPLDSAG [r5_176_TrMRF] | 3.18 ± 0.15 | 3.05 ± 0.17 | 2.89 ± 0.14
42 | SAGGIEDIANEFGIEDVEIEEINPEYNEVTVTFRFRGPNGNPFTWTYTIEVPPPPPPEPKMDPEDNNNSAGG [r13_608_TrROS] | 2.44 ± 0.16 | 1.81 ± 0.32 | 1.06 ± 0.12

From the supplement of paper PMC12764529
